Test results published in article PMC2990405.

Target: Canonical-type transient receptor potential cation channel type 3 (TRPC3) (rabbit (endogenous in skeletal muscle))
Experiment: co-IP

- ratio of GST-band/TRPC3-band intensities normalised to F1-1 (set as 1): 0.25
Substance: GST-JP2 fragment F1-3 (a.a. 143-215) (from UniProt Q9ET78 143-215) (domain or fragment)
